This note sets out measurements from PMC9279507.

Substitutions are numbered along the chain they refer to. In names and notes the source's numbering stands.

For test [1], the target named is STAT1cc (STAT1 core fragment, A656C and N658C, locked dimer), tag-free (UniProt P42224). In words: nickel affinity copurification, SDS-PAGE, Coomassie blue band quantification. The settings on record: parent: est. 1.0; read off a plot.
Test [2] has as its target phosphorylated STAT1 dimer (pSTAT1d), STAT1 core domain S132-H713 (human) (UniProt P42224). The test can be described thus: BLI; His-tagged pSTAT1d or STAT1 monomer loaded on Ni-NTA biosensors, TgIST-R2 proteins in solution; kinetic buffer (ForteBio), 25 °C; 1:1 model for the constant. Background: In BLI a coated tip is dipped into the sample, and binding shifts an interference pattern.

The target of test [3] is GST-tagged TgIST-R2 (Toxoplasma gondii (type I strain GT1)). In words: BLI; GST-tagged TgIST-R2 loaded on anti-GST biosensors, pSTAT1d or pSTAT1d-linker-R2 in solution; kinetic buffer (ForteBio), 25 °C; apparent avidity, 1:2 model.
The target of test [4] is T1, 6XHis-tagged TgIST-R2 (G365-S420).
T1 chain: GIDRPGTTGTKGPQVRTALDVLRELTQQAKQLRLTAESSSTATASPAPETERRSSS
The test can be described thus: nickel affinity copurification, SDS-PAGE, Coomassie blue band quantification. To be noted: chain shown with the change;; parent: est. 1.0; read off a plot.

Turning to “6XHis-tagged TgIST-R2 (G365-S420) Q391A; Q392A”, in test [1], the ratio to parent turned out to be 0.99. On to “6XHis-tagged TgIST-R2 (G365-S420) R416A; R417A”, for which the ratio to parent in test [1] was determined as 0.98. Same read-out and setting: to 6XHis-tagged TgIST-R2 (G365-S420) Q378A belongs 0.83; to 6XHis-tagged TgIST-R2 (G365-S420) D384A, 0.57. For the molecule “TgIST-R2 peptide after GST removal (domain or fragment)”, in test [2], the Kd turned out to be 330 nM. On to 6XHis-tagged TgIST-R2 (G365-S420) E388A, for which the ratio to parent in test [1] amounted to 1.1.

Turning to 6XHis-tagged TgIST-R2 (G365-S420) L383A, the ratio to parent in test [1] was 0.01. For 6XHis-tagged TgIST-R2 (G365-S420) Q392A, the ratio to parent in test [1] is 0.91. The same measure, in the same setting: the figure for 6XHis-tagged TgIST-R2 (G365-S420) Q391A is 1.1. As for “phosphorylated STAT1 dimer (pSTAT1d), STAT1 core domain S132-H713 (from UniProt P42224 132-713) (domain or fragment)”, in test [3], the Kd stood at 22 nM.

Take 6XHis-tagged TgIST-R2 (G365-S420) T381A: in test [1], the ratio to parent stood at 0.38. Still for that read-out and setting: the figure for 6XHis-tagged TgIST-R2 (G365-S420) R387A is 0.03; for 6XHis-tagged TgIST-R2 (G365-S420) L386A it is 0.02.

B1: STAT1cc (STAT1 core fragment, A656C and N658C, locked dimer), tag-free, P42224 D627A (protein)
chain: STVMLDKQKELDSKVRNVKDKVMCIEHEIKSLEDLQDEYDFKCKTLQNREHETNGVAKSDQKQEQLLLKKMYLMLDNKRKEVVHKIIELLNVTELTQNALINDELVEWKRRQQSACIGGPPNACLDQLQNWFTIVAESLQQVRQQLKKLEELEQKYTYEHDPITKNKQVLWDRTFSLFQQLIQSSFVVERQPCMPTHPQRPLVLKTGVQFTVKLRLLVKLQELNYNLKVKVLFDKDVNERNTVKGFRKFNILGTHTKVMNMEESTNGSLAAEFRHLQLKEQKNAGTRTNEGPLIVTEELHSLSFETQLCQPGLVIDLETTSLPVVVISNVSQLPSGWASILWYNMLVAEPRNLSFFLTPPCARWAQLSEVLSWQFSSVTKRGLNVDQLNMLGEKLLGPNASPDGLIPWTRFCKENINDKNFPFWLWIESILELIKKHLLPLWNDGCIMGFISKERERALLKDQQPGTFLLRFSESSREGAITFTWVERSQNGGEPAFHAVEPYTKKELSAVTFPDIIRNYKVMACECIPENPLKYLYPNIDKDHAFGKYYSRPKEAPEPMELDGPKGTGYIKTELISVSEVH
On to B1, for which the ratio to parent in test [4] came out at 0.04.

B2: STAT1cc (STAT1 core fragment, A656C and N658C, locked dimer), tag-free, P42224 E661A (protein)
chain: B1 chain with A496D, E530A
As for B2, in test [4], the ratio to parent came out at 0.61.

B3: STAT1cc (STAT1 core fragment, A656C and N658C, locked dimer), tag-free, P42224 D674A (protein)
chain: MSQWYELQQLDSKFLEQVHQLYDDSFPMEIRQYLAQWLEKQDWEHAANDVSFATIRFHDLLSQLDDQYSRFSLENNFLLQHNIRKSKRNLQDNFQEDPIQMSMIIYSCLKEERKILENAQRFNQAQSGNIQSTVMLDKQKELDSKVRNVKDKVMCIEHEIKSLEDLQDEYDFKCKTLQNREHETNGVAKSDQKQEQLLLKKMYLMLDNKRKEVVHKIIELLNVTELTQNALINDELVEWKRRQQSACIGGPPNACLDQLQNWFTIVAESLQQVRQQLKKLEELEQKYTYEHDPITKNKQVLWDRTFSLFQQLIQSSFVVERQPCMPTHPQRPLVLKTGVQFTVKLRLLVKLQELNYNLKVKVLFDKDVNERNTVKGFRKFNILGTHTKVMNMEESTNGSLAAEFRHLQLKEQKNAGTRTNEGPLIVTEELHSLSFETQLCQPGLVIDLETTSLPVVVISNVSQLPSGWASILWYNMLVAEPRNLSFFLTPPCARWAQLSEVLSWQFSSVTKRGLNVDQLNMLGEKLLGPNASPDGLIPWTRFCKENINDKNFPFWLWIESILELIKKHLLPLWNDGCIMGFISKERERALLKDQQPGTFLLRFSESSREGAITFTWVERSQNGGEPDFHAVEPYTKKELSAVTFPDIIRNYKVMAAENIPENPLKYLYPNIDKAHAFGKYYSRPKEAPEPMELDGPKGTGYIKTELISVSEVHPSRLQTTDNLLPMSPEEFDEVSRIVGSVEFDSMMNTV
For the molecule B3, the ratio to parent in test [4] stood at 0.9.

B4: STAT1cc (STAT1 core fragment, A656C and N658C, locked dimer), tag-free, P42224 E657A (protein)
chain: B3 chain with E657A, A674D
B4: the ratio to parent in test [4] came out at 0.71.

B5: STAT1cc (STAT1 core fragment, A656C and N658C, locked dimer), tag-free, P42224 R619A (protein)
chain: B3 chain with R619A, A674D
Consider B5, for which, in test [4], the ratio to parent was 0.62.

B6: STAT1cc (STAT1 core fragment, A656C and N658C, locked dimer), tag-free, P42224 S620A (protein)
chain: B3 chain with S620A, A674D
As to B6, in test [4], the ratio to parent was determined as 0.8.

B7: STAT1cc (STAT1 core fragment, A656C and N658C, locked dimer), tag-free, P42224 E625A (protein)
chain: B3 chain with E625A, A674D
For the molecule B7, in test [4], the ratio to parent was found to be 0.75.

B8: STAT1cc (STAT1 core fragment, A656C and N658C, locked dimer), tag-free, P42224 N622A (protein)
chain: B3 chain with N622A, A674D
As to B8, the ratio to parent in test [4] was found to be 0.71.

B9: STAT1cc (STAT1 core fragment, A656C and N658C, locked dimer), tag-free, P42224 K652A (protein)
chain: B3 chain with K652A, A674D
Regarding B9, the ratio to parent in test [4] worked out at 0.4.

B10: STAT1cc (STAT1 core fragment, A656C and N658C, locked dimer), tag-free, P42224 K665A (protein)
chain: B3 chain with K665A, A674D
Turning to B10, the ratio to parent in test [4] is 0.7.

B11: STAT1cc (STAT1 core fragment, A656C and N658C, locked dimer), tag-free, P42224 Q594A (protein)
chain: B3 chain with Q594A, A674D
B11: the ratio to parent in test [4] was 0.79.
